Experimental data as given in paper PMC3751641, “Mena/VASP and αII-Spectrin complexes regulate cytoplasmic actin networks in cardiomyocytes and protect from conduction abnormalities and dilated cardiomyopathy” (Cell Communication and Signaling : CCS, 2013).

Tests used:
[1] = target: T1, SH3i, αII-Spectrin splice variant, endogenous in adult mouse heart (mouse (endogenous in mouse heart), UniProt P16546 1-2472); assay: co-IP; adult mouse heart lysate incubated with 5 μg purified anti-Mena, anti-αII-Spectrin or anti-SH3i antibodies, then protein A-sepharose; washed in lysis buffer; Western blot; GST-specific antibodies as control; conditions: partners not purified
T1 construct: source: endogenous, adult mouse heart lysate

[2] = target: T2, GST-α9A (α9 repeat of the αII-Spectrin splice variant SH3i, with the alternatively spliced 20 amino acids) (mouse, UniProt P16546 893-1088); assay: pull-down; 5 μg GST or equimolar GST-fusion proteins immobilised on glutathione sepharose, incubated with cleared adult mouse heart lysate (40 mM Hepes-NaOH pH 7.4, 75 mM NaCl, 1% NP40, protease inhibitors); blot with anti-Mena; conditions: one partner purified
T2 construct: mouse αII-Spectrin, splice variant SH3i (protein ID AAI50942), amino acids Q893-E1088: the α9 repeat with the SH3 domain and the 20-residue insert T1053-L1072; numbers count on: SH3i, AAI50942; cDNA subcloned into the pGEX-6P2 vector

B1: Mena (mammalian Enabled) (natural protein, mouse (endogenous in mouse heart), UniProt Q03173-3 1-541, looked up)
chain: MSEQSICQARAAVMVYDDANKKWVPAGGSTGFSRVHIYHHTGNNTFRVVGRKIQDHQVVINCAIPKGLKYNQATQTFHQWRDARQVYGLNFGSKEDANVFASAMMHALEVLNSQEAGPTLPRQNSQLPAQVQNGPSQEELEIQRRQLQEQQRQKELERERMERERLERERLERERLERERLEQEQLERQRQEREHVERLERERLERLERERQERERERLEQLEREQVEWERERRMSNAAAPASAETPLNPELGDSSASEPGLQAASQPAESPTPQGLVLGPPAPPPPPPLPSGPAYASALPPPPGPPPPPPLPSTGPPPPPPPPPPLPNQAPPPPPPPPAPPLPASGIFSGSTSEDNRPLTGLAAAIAGAKLRKVSRVEDGSFPGGGNTGSVSLASSKADAGRGNGPLPLGGSGLMEEMSALLARRRRIAEKGSTIETEQKEDRNEDAEPITAKAPSTSTPEPTRKPWERTNTMNGSKSPVISRPKSTPSSQPSANGVQTEGLDYDRLKQDILDEMRKELAKLKEELIDAIRQELSKSNTA
notes: mouse Mena, endogenous; two isoforms exist in the mouse heart, the general one (~80 kDa, 541 aa) and the neuronal splice variant (~140 kDa); source: endogenous, adult mouse heart lysate
- fold more Mena precipitated than by general αII-Spectrin-specific antibodies [1]: 8 fold
- fold more Mena precipitated than by α9 or SH3 [2]: ≥ 10 fold
